From article PMC7820495
Residue numbers refer to the chain shown, from its start. In names and notes the source's numbering stands.

T1: GST-SVIP (Drosophila SVIP, CG32039), Q8IQC6
T1 chain: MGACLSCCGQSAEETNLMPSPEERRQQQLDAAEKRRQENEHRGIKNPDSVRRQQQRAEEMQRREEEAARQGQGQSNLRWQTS

B1: MBP-VCP^N-D1 (Drosophila VCP, N-terminal and first D1 ATPase domain), Q7KN62 R152H (protein)
chain: MADSKGEDLATAILKRKDRPNRLIVEEAQNDDNSVVSLSQAKMDELQLFRGDTVILKGKRRKETVCIVLSDDTCPDEKIRMNRVVRNNLCVHLSDVVSVQSCPDVKYGKRVRILPIDESTEGVTGNLFEIYLKPYFLEAYRPIHMGDNFIVHAAMRPIEFKVVLTDPEPYCIVAPETVIFCDGDPIKREEEEESLNAVGYDDIGGCRKQLAQIKEMVELPLRHPSLFKAIGVKPPRGILMYGPPGTGKTLIARAVANETGAFFFLINGPEIMSKLAGESESNLRKAFEEAEKNSPAIIFIDEIDAIAPKRDKTHGEVERRIVSQLLTLMDGMKKSSHLIVMAATNRPNSIDPALRRFGRFDREIDIGIPDATGRLEVLRIHTKNMKLHDDVDLEQIAAESHGHVGADLASLCSEAALQQIREKMDLIDLEDDKIDAEVLASLAVTMENFRYAMTKSSPSALRETVVEVPNTTWTDIGGLESVKKELQELVQYPVEHPDKFLKFGMQPSRGVLFYGPPGCGKTLLAKAIANECQANFISVKGPELLTMWFGESEANVRDIFDKARSAAPCVLFFDELDSIAKARGGNVGDAGGAADRVINQILTEMDGMGAKKNVFIIGATNRPDIIDPAILRPGRLDQLIYIPLPDDKSREAILKANLRKSPLAKEVDLTYIAKVTQGFSGADLTEICQRACKLAIRQAIEAEIRREKERAENQNSAMDMDEDDPVPEITSAHFEEAMKFARRSVSDNDIRKYEMFAQTLQQSRGFGQNFRFPGQTGNTSGSGNNLPVNSPGDNGDDDLYS
B2: MBP-VCP^N-D1 (Drosophila VCP, N-terminal and first D1 ATPase domain), Q7KN62 T259A (protein)
chain: B1 chain with H152R, T259A
B3: MBP-VCP^N-D1 (Drosophila VCP, N-terminal and first D1 ATPase domain), Q7KN62 A229E (protein)
chain: B1 chain with H152R, A229E

Biological target: T1, GST-SVIP (Drosophila SVIP, CG32039), …
Experiment: in vitro binding titration assay
Conditions: chain shown with the change;; parent: 0.70 uM

Binder	Kd [nM]
B1	640
B2	1230
B3	580
